Measurements as given in paper PMC11341764, “Sae2 controls Mre11 endo- and exonuclease activities by different mechanisms” (Nature Communications, 2024).

B2: Rad50-FLAG (wild-type) (natural protein, yeast, UniProt P12753 1-1312, looked up)
chain: MSAIYKLSIQGIRSFDSNDRETIEFGKPLTLIVGMNGSGKTTIIECLKYATTGDLPPNSKGGVFIHDPKITGEKDIRAQVKLAFTSANGLNMIVTRNIQLLMKKTTTTFKTLEGQLVAINNSGDRSTLSTRSLELDAQVPLYLGVPKAILEYVIFCHQEDSLWPLSEPSNLKKKFDEIFQAMKFTKALDNLKSIKKDMSVDIKLLKQSVEHLKLDKDRSKAMKLNIHQLQTKIDQYNEEVSEIESQLNEITEKSDKLFKSNQDFQKILSKVENLKNTKLSISDQVKRLSNSIDILDLSKPDLQNLLANFSKVLMDKNNQLRDLETDISSLKDRQSSLQSLSNSLIRRQGELEAGKETYEKNRNHLSSLKEAFQHKFQGLSNIENSDMAQVNHEMSQFKAFISQDLTDTIDQFAKDIQLKETNLSDLIKSITVDSQNLEYNKKDRSKLIHDSEELAEKLKSFKSLSTQDSLNHELENLKTYKEKLQSWESENIIPKLNQKIEEKNNEMIILENQIEKFQDRIMKTNQQADLYAKLGLIKKSINTKLDELQKITEKLQNDSRIRQVFPLTQEFQRADLEMDFQKLFINMQKNIAINNKKMHELDRRYTNALYNLNTIEKDLQDNQKSKEKVIQLLSENLPEDCTIDEYNDVLEETELSYKTALENLKMHQTTLEFNRKALEIAERDSCCYLCSRKFENESFKSKLLQELKTKTDANFEKTLKDTVQNEKEYLHSLRLLEKHIITLNSINEKIDNSQKCLEKAKEETKTSKSKLDELEVDSTKLKDEKELAESEIRPLIEKFTYLEKELKDLENSSKTISEELSIYNTSEDGIQTVDELRDQQRKMNDSLRELRKTISDLQMEKDEKVRENSRMINLIKEKELTVSEIESSLTQKQNIDDSIRSKRENINDIDSRVKELEARIISLKNKKDEAQSVLDKVKNERDIQVRNKQKTVADINRLIDRFQTIYNEVVDFEAKGFDELQTTIKELELNKAQMLELKEQLDLKSNEVNEEKRKLADSNNEEKNLKQNLELIELKSQLQHIESEISRLDVQNAEAERDKYQEESLRLRTRFEKLSSENAGKLGEMKQLQNQIDSLTHQLRTDYKDIEKNYHKEWVELQTRSFVTDDIDVYSKALDSAIMKYHGLKMQDINRIIDELWKRTYSGTDIDTIKIRSDEVSSTVKGKSYNYRVVMYKQDVELDMRGRCSAGQKVLASIIIRLALSETFGANCGVIALDEPTTNLDEENIESLAKSLHNIINMRRHQKNFQLIVITHDEKFLGHMNAAAFTDHFFKVKRDDRQKSQIEWVDINRVTY
notes: Rad50, yeast, expressed from the pFB-RAD50-FLAG vector; Dimeric by mass photometry; also called Rad50-WT; wild-type Rad50 protein

Legend:
Rad50-C47-FLAG (yeast) = Rad50-C47-FLAG (yeast) (UniProt P12753); assay: mass photometry; Rad50 variants alone; molecular weight estimated
Rad50-FLAG (wild-type) = molecular target: B2; assay: pull-down; MBP-pSae2 (bait) from Sf9 extracts immobilised on amylose resin and washed, incubated 1 h at 4 °C with 2.5 μg purified Rad50-FLAG variants (prey); 50 mM Tris-HCl pH 7.5, 2 mM EDTA, 80 mM NaCl, 0.2% NP40; eluted with 20 mM maltose; anti-FLAG blot; details: both partners purified
[1] = molecular target: the molecule itself; assay: mass photometry; Rad50 variants alone; molecular weight estimated
Rad50-C47 = molecular target: T1, Rad50-C47 (Saccharomyces cerevisiae, UniProt P12753 1-1312, K1299R); assay: EMSA; 1 mM ATP-gamma-S, 5 mM Mg2+; comparable to WT; 25 mM Tris-acetate pH 7.5, 5 mM Mg chloride, 1 mM DTT, 0.25 ug/ul BSA, 1 mM ATP-gamma-S, 1 nM DNA, 15 min at 30 C; 6% PAGE in TAE on ice; details: protein: recombinant; tags: FLAG; chain copies: 2; label: PC210 3' 32P-dC added by TdT; blunt apart from the 3' TdT-added labeled dC on PC210
T1 sequence: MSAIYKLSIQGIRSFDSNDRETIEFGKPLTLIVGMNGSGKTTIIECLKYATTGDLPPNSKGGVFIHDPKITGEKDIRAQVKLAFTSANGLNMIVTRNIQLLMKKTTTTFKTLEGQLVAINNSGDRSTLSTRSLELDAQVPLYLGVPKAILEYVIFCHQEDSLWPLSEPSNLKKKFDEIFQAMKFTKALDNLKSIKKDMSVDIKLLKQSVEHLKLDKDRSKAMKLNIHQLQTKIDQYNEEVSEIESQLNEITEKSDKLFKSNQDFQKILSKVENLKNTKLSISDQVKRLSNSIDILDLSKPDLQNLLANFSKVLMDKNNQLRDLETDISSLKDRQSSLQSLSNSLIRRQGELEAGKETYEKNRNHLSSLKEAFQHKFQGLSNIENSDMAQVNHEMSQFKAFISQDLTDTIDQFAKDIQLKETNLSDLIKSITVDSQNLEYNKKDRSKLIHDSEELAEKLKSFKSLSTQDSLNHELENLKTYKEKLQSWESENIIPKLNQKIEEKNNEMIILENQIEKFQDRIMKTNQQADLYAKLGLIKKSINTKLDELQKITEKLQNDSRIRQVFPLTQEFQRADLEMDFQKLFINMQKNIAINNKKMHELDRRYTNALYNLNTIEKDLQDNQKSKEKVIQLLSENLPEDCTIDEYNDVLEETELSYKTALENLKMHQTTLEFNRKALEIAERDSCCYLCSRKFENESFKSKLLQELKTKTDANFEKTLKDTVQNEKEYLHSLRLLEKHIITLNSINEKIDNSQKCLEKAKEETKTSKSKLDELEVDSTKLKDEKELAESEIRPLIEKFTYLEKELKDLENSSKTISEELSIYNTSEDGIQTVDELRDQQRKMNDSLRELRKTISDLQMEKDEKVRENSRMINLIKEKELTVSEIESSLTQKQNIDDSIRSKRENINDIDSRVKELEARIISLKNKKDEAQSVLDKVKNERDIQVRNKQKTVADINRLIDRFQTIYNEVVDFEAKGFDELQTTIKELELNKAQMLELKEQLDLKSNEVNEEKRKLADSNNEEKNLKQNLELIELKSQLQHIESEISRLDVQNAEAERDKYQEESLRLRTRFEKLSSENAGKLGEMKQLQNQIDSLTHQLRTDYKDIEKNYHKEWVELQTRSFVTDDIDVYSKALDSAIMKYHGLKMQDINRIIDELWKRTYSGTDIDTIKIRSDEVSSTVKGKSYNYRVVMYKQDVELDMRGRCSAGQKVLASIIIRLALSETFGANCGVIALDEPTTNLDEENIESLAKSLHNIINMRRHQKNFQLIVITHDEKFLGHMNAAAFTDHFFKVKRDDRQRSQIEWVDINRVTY

Rad50-C47-FLAG (from UniProt P12753 1-1312) (natural protein)
stoichiometry N (Rad50-C47-FLAG (yeast)): 2

B1: phosphorylated MBP-Sae2 (natural protein, yeast, UniProt P46946 1-345, looked up)
chain: MVTGEENVYLKSSLSILKELSLDELLNVQYDVTTLIAKRVQALQNRNKCVLEEPNSKLAEILCHEKNAPQQSSQTSAGPGEQDSEDFILTQFDEDIKKESAEVHYRNENKHTVQLPLVTMPPNRHKRKISEFSSPLNGLNNLSDLEDCSDTVIHEKDNDKENKTRKLLGIELENPESTSPNLYKNVKDNFLFDFNTNPLTKRAWILEDFRPNEDIAPVKRGRRKLERFYAQVGKPEDSKHRSLSVVIESQNSDYEFAFDNLRNRSKSPPGFGRLDFPSTQEGNEDKKKSQEIIRRKTKYRFLMASNNKIPPYEREYVFKREQLNQIVDDGCFFWSDKLLQIYARC
modifications: phosphorylated (expressed in the presence of phosphatases inhibitors); sites not stated
notes: Sae2, yeast, from the pFB-MBP-Sae2-His vector expressing MBP and His-tagged Sae2; also called MBP-pSae2; source: Sf9, from extracts, held on amylose resin and washed
binding result (Rad50-FLAG (wild-type)): binds

B2
stoichiometry N [1]: 2

B3: 70 bp dsDNA (PC210/PC211) (dsDNA)
DNA 1: GTAAGTGCCGCGGTGCGGGTGCCAGGGCGTGCCCTTGGGCTCCCCGGGCGCGTACTCCACCTCATGCATC
DNA 2: GATGCATGAGGTGGAGTACGCGCCCGGGGAGCCCAAGGGCACGCCCTGGCACCCGCACCGCGGCACTTAC
modifications: biotinylated dT in the oligonucleotides (Table S1; positions marked by bold underline, lost in the text)
binding result (Rad50-C47): binds
